Data taken from patent publication US20140030267A1, “COMPOSITIONS, METHODS AND KITS RELATING TO RESISTIN” (The Trustees of the University of Pennsylvania, priority 1999, published 2014).

B1: resistin: mouse resistin (SEQ ID NO:2) in concentrated conditioned medium of recombinant 293T cells expressing resistin (protein)
chain: SSMPLCPIDEAIDKKIKQDFNSLFPNAIKNIGLNCWTVSSRGKLASCPEGTAVLSCSCGSACGSWDIRGGKVCHCQCARIDWTAARCCKLQVAS

Key:
resistin gene expression = assay: Northern blot of resistin gene expression in 3T3-L1 adipocytes treated with TZD; type: cell-based, murine; conditions: rosiglitazone 1 μM
Procedure: 3T3-L1 cells were differentiated to adipocytes then treated with the indicated vehicles (ethanol [EtOH] or dimethylsulfoxide [DMSO]) or with the indicated TZD compounds (each at 1 μM). Then, RNA was prepared and analyzed using Northern blot analysis using resistin cDNA probe.
FIG. 6 is an image of a Northern blot depicting the time course of resistin expression down-regulation by rosiglitazone. BRL49653 (rosiglitazone) was used at a concentration of 1 μM in DMSO. The Northern blot was probed using mouse resistin cDNA. The position of resistin mRNA is indicated in the image. 3T3-L1 cells were differentiated to adipocytes then treated with rosiglitazone (1 μM) for the indicated times (in hours) before RNA was isolated. Resistin expression was examined using Northern analysis using resistin cDNA probe.
To clone and identify resistin, 3T3-L1 cells were differentiated into adipocytes using a standard protocol using differentiation medium (DM) containing dexamethasone, insulin, isobutylmethylxanthine, and fetal bovine serum as described in Green and Kehinde (1975, Cell 5:19-27) and Green and Meuth (1974, Cell 3:127-133). On the seventh day of culture, the cells were treated with either dimethylsulfoxide (DMSO) or 1 micromolar BRL49653 (rosiglitazone) in DMSO. […]

[1] = Glucose tolerance test in mice after administration of resistin; type: in vivo
Procedure: Prior to injection into animals, 30 ml of conditioned media harvested from recombinant 293T cells expressing resistin was concentrated into 5 ml using an Ultrafree-15 centrifugal filter device (Millipore).
Male and female mice, 9 weeks of age, were administered 200 microliters of concentrated conditioned media intraperitonially just prior to the dark cycle. Mice were consequently fasted overnight. Twelve hours later, a second intraperitional dose of concentrated CM was administered to each animal. Two hours after the second administration, the mice were given a glucose challenge of 10 microliters per gram of body weight of 20% glucose in PBS solution. Blood glucose levels were determined using a Fast-Take glucometer (Johnson & Johnson) at thirty minute intervals for a two hour period.
The blood glucose levels of mice dosed with resistin are depicted using dotted lines in FIG. 21, and control glucose values are indicated using solid lines (FIG. 21). More specifically, eight female mice (4 per group) were treated with either vehicle (solid lines) or resistin preparation (dashed lines) prepared using conditioned medium obtained from recombinant 293T cells as described elsewhere herein.

Molecule	time after exposure at which the effect on resistin expression is maximal (resistin gene expression) [h]	blood glucose 30 minutes after glucose administration ([1]; female mice, intraperitoneal resistin preparation, 30 minutes after glucose challenge)	glucose tolerance ([1]; mice, resistin preparation)
CN(CCOc1ccc(CC2SC(=O)NC2=O)cc1)c1ccccn1 (stereo not drawn) [rosiglitazone]	48	–	–
B1	–	395.+−0.67 mg/dl	reducing glucose tolerance to diabetic levels
